In PMC10130221 one finds Kd data, which are given here for one substance.

Holding throughout (test): filter binding
Data set [1] concerns TrmB R26A (Escherichia coli). The conditions noted are these: none (in vitro transcribed), becomes m7G46 during incubation with SAM, TAKEM4: 50 mM Tris-HCl pH 7.5, 70 mM NH4Cl, 30 mM KCl, 1 mM EDTA, 4 mM MgCl2, filter binding 20 nM tRNA, 10 min (temperature not given in the material) ….
The test system of data set [2] is TrmB R155A (Escherichia coli). Particulars: max. about 30% bound, none (in vitro transcribed), becomes m7G46 during incubation with SAM, TAKEM4: 50 mM Tris-HCl pH 7.5, 70 mM NH4Cl, 30 mM KCl, 1 mM EDTA, 4 mM MgCl2, filter binding 20 nM tRNA, 10 min (temperature not given in the material) ….
Data set [3] deals with TrmB WT (Escherichia coli). The conditions noted are these: none (in vitro transcribed), becomes m7G46 during incubation with SAM, TAKEM4: 50 mM Tris-HCl pH 7.5, 70 mM NH4Cl, 30 mM KCl, 1 mM EDTA, 4 mM MgCl2, filter binding 20 nM tRNA, 10 min (temperature not given in the material) ….
The test system of data set [4] is TrmB T217A (Escherichia coli). The conditions noted are these: none (in vitro transcribed), becomes m7G46 during incubation with SAM, TAKEM4: 50 mM Tris-HCl pH 7.5, 70 mM NH4Cl, 30 mM KCl, 1 mM EDTA, 4 mM MgCl2, filter binding 20 nM tRNA, 10 min (temperature not given in the material) ….
In data set [5] the test system is TrmB D144A (Escherichia coli). The conditions noted are these: none (in vitro transcribed), becomes m7G46 during incubation with SAM, TAKEM4: 50 mM Tris-HCl pH 7.5, 70 mM NH4Cl, 30 mM KCl, 1 mM EDTA, 4 mM MgCl2, filter binding 20 nM tRNA, 10 min (temperature not given in the material) ….

In the case of [3H]tRNAPhe (unmodified transcript), the dissociation constant Kd – broadly, the equilibrium constant for the complex coming apart – in data set [1] (50 uM SAM) amounted to 5.1 µM; in data set [1] (no SAM, max. about 20% bound), 6.4 µM; in data set [2] (50 uM SAM), 5.8 µM; in data set [2] (no SAM), 10 µM; in data set [3] (50 uM SAM, tRNA becomes m7G46 product in 10 min), 2.1 µM; in data set [3] (no SAM) it was 6.6 µM. Besides, the Kd in data set [4] (50 uM SAM) amounted to 2.6 µM; in data set [4] (no SAM) it was 5.4 µM; in data set [5] (50 uM SAM) it was 0.8 µM; in data set [5] (no SAM) it was 2.5 µM.
